Consider 16 molecules from patent US20240293588A1, “THERAPEUTIC CONJUGATES” (Starpharma Pty Ltd, priority 2020, published 2024).

The target of experiment [1] is T1, ErbB2-ECD (Homo sapiens, UniProt P04626). The experiment in a line: SPR, ErbB2-ECD amine-coupled on chip, analyte injected, 25 °C, 1:1 Langmuir fit; affibody dimeric.
Experiment [2] deals with T1, ErbB2-ECD. Put plainly: SPR, ErbB2-ECD amine-coupled on chip, analyte injected, 25 °C, 1:1 Langmuir fit.
Experiment [3] has as its system HER2-positive MDA-MB-453 cells. The experiment in a line: Binding of 2D3-dendrimer conjugates to MDA-MB-453 cells (Cy5 MFI). The following applies: for MFI (mean fluorescence intensity, Cy5): MDA-MB-453 cells incubated with dendrimers, triplicate wells, mean with standard deviation; for binding to MDA-MB-453 cells: flow cytometry, result in words. It is filed as cell-based, human.

Experiment [4] deals with MDA-MB-231/HER2 (HER2 knock in) cells. The experiment in a line: In vitro association study (flow cytometry), MDA-MB-231/HER2. The following applies: MDA-MB-231/HER2, 3.33 nM, over 24 h, mean±SD. The experiment is classed as cell-based, human.
Experiment [5] addresses T2, HER2 (human epidermal growth factor receptor 2) on cells (human, UniProt P04626 23-1255).
T2 construct: whole, on cells; also called ERBB2; HER2 receptor
The experiment in a line: flow cytometry (Cy5), BT-474 cells, 1 h, conjugate at 3 mM (so in the source).

Experiment [6] concerns the target T2, HER2 (human epidermal growth factor …). Put plainly: flow cytometry (Cy5), BT-474 cells, 1 h, conjugate at 6 mM (so in the source).
Experiment [7] has the same target. Put plainly: flow cytometry (Cy5), BT-474 cells, 1 h, conjugate at 12 mM (so in the source).
Experiment [8] shares this target. Put plainly: flow cytometry (Cy5), BT-474 cells, 1 h, conjugate at 25 mM (so in the source).
For experiment [9] the target is unchanged. Put plainly: flow cytometry (Cy5), MDA-MB-231/HER2 cells, 0.5 h.
For experiment [10] the target is unchanged. The experiment in a line: flow cytometry (Cy5), MDA-MB-231 parental cells (HER2 lo, control), 0.5 h.

In the experiment with ErbB2-ECD [1], “Affibody protein (HER2, Affibody AB) (designed binder)” returned a Kd of 0.266 nM, a koff of 0.00051 s⁻¹ and a kon of 1.9e+06 M⁻¹ s⁻¹.

On to “Affibody-BCN/N3-PEG24CO-[N(PN)2][Lys]2[Lys]4[Lys]8[(α-NHGlu-vc-PAB-MMAE)8(ε-NH-COPEG1100)8], G3, Compound 77 (designed binder)”, for which, in the experiment with ErbB2-ECD [2], the Kd was found to be 50 nM, the koff amounted to 0.0013 s⁻¹ and the kon was 25000 M⁻¹ s⁻¹.

In the experiment with ErbB2-ECD [2], “Affibody-BCN/N3-PEG24CO-[N(PN)2][Lys]2[Lys]4[Lys]8[(α-NHGlu-vc-PAB-MMAE)8(ε-NH-COPEG2000)8], G3, Compound 78 (designed binder)” yielded a Kd of 36 nM, a koff of 0.00114 s⁻¹ and a kon of 32000 M⁻¹ s⁻¹.

“(MeTzPh)PEG4CO-NHPEG24CO—[N(PN)2][Lys]2[Lys]4[Lys]8[((α-NHCy5)1(α-NHAc)7)(ε-NH-COPEG1100)8], G3 [Compound 52]”: in experiment [3], the “MFI (mean fluorescence intensity, Cy5)” value is listed as 3.097 ± 0.01 and the “binding to MDA-MB-453 cells” value is on record as “did not bind”. The “percent of cellular association” value in experiment [4] is on record as “significantly lower association”.

On to “(MeTzPh)PEG4CO-NHPEG24CO—[N(PN)2][Lys]2[Lys]4[Lys]8[Lys]16[Lys]32[((α-NHCy5)1(α-NHAc)31)(ε-NH-COPEG1100)32], G5 [Compound 54]”, for which, in experiment [3], the “MFI (mean fluorescence intensity, Cy5)” value amounted to 4.349 ± 0.08 and the “binding to MDA-MB-453 cells” value is “did not bind”. For the same molecule, the “percent of cellular association” value in experiment [4] was “significantly lower association”.

As to “(MeTzPh)PEG4CO-NHPEG24CO—[N(PN)2][Lys]2[Lys]4[Lys]8[Lys]16[((α-NHCy5)1(α-NHAc)15)(ε-NH-COPEG1100)16], G4 [Compound 53]”, in experiment [3], the “MFI (mean fluorescence intensity, Cy5)” value worked out at 6.827 ± 0.07 and the “binding to MDA-MB-453 cells” value was “did not bind”. The “percent of cellular association” value in experiment [4] was “significantly lower association”.

B1: [[(ε-NHCO-PEG1100)8(α-NHDOTA)4.75(α-NHCy5)0.5(α-NH2)2.75][Lys]8[Lys]4[Lys]2[Lys]-CONH-CH2-CH2-S-]2MAL-PEG3-NHCO-PEG24-CONH-PEG4-(PhTzMe)/TCO-NHCO-PEG24-(MAL)Me/ … (VHH)
VHH: EVQLVESGGSLVQPGGSLRLSCAASGFTFDDYAMSWVRQVPGKGLEWVSSINWSGTHTDYADSVKGRFTISRNNANNTLYLQMNSLKSEDTAVYYCAKNWRDAGTTWFEKSGSAGQGTQVTVSS
modifications: the additional cysteine (in …) coupled to the methylmaleimide of linker SRS-12 (intermediate SRS-14), whose TCO is joined to the tetrazine of dendrimer SRS-4-Mal (maleimide core, Cy5, DOTA, PEG1100)
For the molecule B1, the MFI amounted to 915 in [5], 1460 in experiment [6], 2270 in [7] and 2150 in experiment [8].

B2: BHALys[Lys]2[Lys]4[((α-NH-COPEG24NH-COPEG4(PhMeTz)/TCO-PEG3NH-COPEG24NH-Glu-DBCO/N3-Nanobody)1(α-Lys(α-NHCy5)(ε-NHDFO))1(α-NH2)2)(ε-NH-COPEG1000)4], G2, … (VHH)
VHH: EVQLVESGGSLVQPGGSLRLSCAASGFTFDDYAMSWVRQVPGKGLEWVSSINWSGTHTDYADSVKGRFTISRNNANNTLYLQMNSLKSEDTAVYYCAKNWRDAGTTWFEKSGSAGQGTQVTVSS
modifications: # (unnatural amino acid, p-azido-phenylalanine, after ...QVTVSS) clicked to the DBCO of linker Compound 51, whose TCO is joined to the tetrazine on the surface of the G2 lysine dendrimer Compound 25 (Cy5, DFO, 4 PEG1000)
notes: also called BHA-G2-PEG1000 + NB
B2: the “percent of cellular association” value was found to be 190% in experiment [9] and 30.8% in [10].

B3: BHA[Lys]2[Lys]4[Lys]8[Lys]16[Lys]32[((α-NH-COPEG24NH-COPEG4(PhMeTz)/TCO-PEG3NH-COPEG24NH-Glu-DBCO/N3-Nanobody)1(α-Lys(α-NHCy5)(ε-NHDFO))1(α-NH2)30(ε-NH-COPEG100 … (VHH)
VHH: EVQLVESGGSLVQPGGSLRLSCAASGFTFDDYAMSWVRQVPGKGLEWVSSINWSGTHTDYADSVKGRFTISRNNANNTLYLQMNSLKSEDTAVYYCAKNWRDAGTTWFEKSGSAGQGTQVTVSS
modifications: # (unnatural amino acid, p-azido-phenylalanine, after ...QVTVSS) clicked to the DBCO of linker Compound 51, whose TCO is joined to the tetrazine on the surface of the G5 lysine dendrimer Compound 29 (Cy5, DFO, 32 PEG1000)
notes: also called BHA-G5-PEG1000 + NB
Consider B3, for which the “percent of cellular association” value in [9] was 165%; in [10], 17.5%.

B4: BHALys[Lys]2[Lys]4[Lys]8[((α-NH-COPEG24NH-COPEG4(PhMeTz)/TCO-PEG3NH-COPEG24NH-Glu-DBCO/N3-Nanobody)1(α-Lys(α-NHCy5)(ε-NHDFO))1(α-NH2)6)(ε-NH-COPEG1000)8], G3, … (VHH)
VHH: EVQLVESGGSLVQPGGSLRLSCAASGFTFDDYAMSWVRQVPGKGLEWVSSINWSGTHTDYADSVKGRFTISRNNANNTLYLQMNSLKSEDTAVYYCAKNWRDAGTTWFEKSGSAGQGTQVTVSS
modifications: # (unnatural amino acid, p-azido-phenylalanine, after ...QVTVSS) clicked to the DBCO of linker Compound 51, whose TCO is joined to the tetrazine on the surface of the G3 lysine dendrimer Compound 27 (Cy5, DFO, 8 PEG1000)
notes: also called BHA-G3-PEG1000 + NB
Turning to B4, the “percent of cellular association” value in experiment [9] amounted to 218%; in [10], 25.1%.

B5: [(ε-NHCO-PEG1100)16(α-NHCy5)1(α-NHDOTA)8(α-NH2)7][Lys]16[Lys]8[Lys]4[Lys]2[Lys]-CONH-CH2-CH2-S-(Me)MAL-PEG24-CONH-Bn-Tz(Me)/TCO-NHCO-PEG24-(MAL)Me/Cys-Nanobody … (VHH)
VHH: EVQLVESGGSLVQPGGSLRLSCAASGFTFDDYAMSWVRQVPGKGLEWVSSINWSGTHTDYADSVKGRFTISRNNANNTLYLQMNSLKSEDTAVYYCAKNWRDAGTTWFEKSGSAGQGTQVTVSS
modifications: the additional cysteine (in …) coupled to the methylmaleimide of linker SRS-12 (intermediate SRS-14), whose TCO is joined to the tetrazine of dendron RP-5 (1 Cy5, 8 DOTA, 16 PEG1100)
With B5, the MFI in experiment [5] is 716; in [6], 732; in [7], 1370; in experiment [8], 1450.

B6: [(ε-NHCO-PEG1100)16(α-DOTA)7(α-NHCy5)1(α-NH2)8][Lys]16[Lys]8[Lys]4[Lys]2[Lys]-(PN)NCO-PEG24-CONH-PEG4-(PhTzMe)/TCO-PEG3-NHCO-PEG24-Glu-DBCO/N3-Nanobody SRS-22 (VHH)
VHH: EVQLVESGGSLVQPGGSLRLSCAASGFTFDDYAMSWVRQVPGKGLEWVSSINWSGTHTDYADSVKGRFTISRNNANNTLYLQMNSLKSEDTAVYYCAKNWRDAGTTWFEKSGSAGQGTQVTVSS
modifications: # (unnatural amino acid, p-azido-phenylalanine, after ...QVTVSS) clicked to the DBCO of SRS-22a (linker Compound 51 on dendrimer HH-2: 1 Cy5, 7 DOTA, 16 PEG1100)
In the case of B6, the MFI in experiment [5] worked out at 2640; in experiment [6], 4910; in [7], 6550; in [8], 6490.

B7: [(ε-NHCO-PEG1100)16(α-DOTA)7(α-NHCy5)1(α-NH2)8][Lys]16[Lys]8[Lys]4[Lys]2[Lys]-(PN)NCO-PEG24-CONH-PEG4-(PhTzMe)/TCO-NHCO-PEG24-(MAL)Me/Cys-Nanobody SRS-17 (VHH)
VHH: EVQLVESGGSLVQPGGSLRLSCAASGFTFDDYAMSWVRQVPGKGLEWVSSINWSGTHTDYADSVKGRFTISRNNANNTLYLQMNSLKSEDTAVYYCAKNWRDAGTTWFEKSGSAGQGTQVTVSS
modifications: the additional cysteine (in …) coupled to the methylmaleimide of linker SRS-12 (intermediate SRS-14), whose TCO is joined to the tetrazine of dendrimer HH-2 (1 Cy5, 7 DOTA, 16 PEG1100)
For the molecule B7, the MFI was determined as 1020 in [5], 1530 in [6], 2270 in experiment [7] and 2550 in experiment [8].

B8: BHA[Lys]2[Lys]4[Lys]8[Lys]16[((α-NH-COPEG24NH-COPEG4(PhMeTz)/TCO-PEG3NH-COPEG24NH-Glu-DBCO/N3-Nanobody)1(α-Lys(α-NHCy5)(ε-NHDFO))1(α-NH2)14(ε-NH-COPEG1000)16], … (VHH)
VHH: EVQLVESGGSLVQPGGSLRLSCAASGFTFDDYAMSWVRQVPGKGLEWVSSINWSGTHTDYADSVKGRFTISRNNANNTLYLQMNSLKSEDTAVYYCAKNWRDAGTTWFEKSGSAGQGTQVTVSS
modifications: # (unnatural amino acid, p-azido-phenylalanine, after ...QVTVSS) clicked to the DBCO of linker Compound 51, whose TCO is joined to the tetrazine on the surface of the G4 lysine dendrimer Compound 28 (Cy5, DFO, 16 PEG1000)
notes: One nanobody on each dendrimer; also called single 2D3-dendrimer conjugate; BHA-G4-PEG1000 + NB
With B8, the “percent of cellular association” value was found to be 157% in experiment [9] and 20% in [10].

B9: [[(ε-NHCO-PEG1100)8(α-NHDOTA)4.75(α-NHCy5)0.5(α-NH2)2.75][Lys]8[Lys]4[Lys]2[Lys]-CONH-CH2-CH2-S-]2MAL-PEG3-NHCO-PEG24-CONH-PEG4-(PhTzMe)/TCO-PEG3-NHCO-PEG24-Glu … (VHH)
VHH: EVQLVESGGSLVQPGGSLRLSCAASGFTFDDYAMSWVRQVPGKGLEWVSSINWSGTHTDYADSVKGRFTISRNNANNTLYLQMNSLKSEDTAVYYCAKNWRDAGTTWFEKSGSAGQGTQVTVSS
modifications: # (unnatural amino acid, p-azido-phenylalanine, after ...QVTVSS) clicked to the DBCO of SRS-20a (linker Compound 51 on dendrimer SRS-4-Mal: maleimide core, Cy5, DOTA, PEG1100)
For B9, the MFI is 1500 in experiment [5], 2170 in experiment [6], 3140 in experiment [7] and 3400 in experiment [8].

B10: BHALys[Lys]2[Lys]4[Lys]8[Lys]16[((α-NH-COPEG24NH-COPEG4(PhTzMe)/TCO-PEG3-NHCO-PEG24-(MAL)Me/Cys-Nanobody)1(α-NHCy5)1(α-NHDOTA))10(α-NH2)4)(ε-NH-COPEG1000)16] … (VHH)
VHH: EVQLVESGGSLVQPGGSLRLSCAASGFTFDDYAMSWVRQVPGKGLEWVSSINWSGTHTDYADSVKGRFTISRNNANNTLYLQMNSLKSEDTAVYYCAKNWRDAGTTWFEKSGSAGQGTQVTVSS
modifications: the additional cysteine (in …) coupled to the methylmaleimide of SRS-21a (linker SRS-12 on G4 dendrimer SRS-1: 1 Cy5, 10 DOTA, 16 PEG1000)
With B10, the MFI turned out to be 3100 in experiment [5], 4640 in experiment [6], 5260 in [7] and 4760 in experiment [8].
